In assay [1] the target is T1, rat FXR (farnesoid X-activated receptor), full-length (rat, UniProt Q62735 1-469).
T1 construct: mature; Full-length protein cloned into pCMX and translated in vitro for the mobility shift assays; also called bile acid nuclear receptor
T1 sequence (looked up): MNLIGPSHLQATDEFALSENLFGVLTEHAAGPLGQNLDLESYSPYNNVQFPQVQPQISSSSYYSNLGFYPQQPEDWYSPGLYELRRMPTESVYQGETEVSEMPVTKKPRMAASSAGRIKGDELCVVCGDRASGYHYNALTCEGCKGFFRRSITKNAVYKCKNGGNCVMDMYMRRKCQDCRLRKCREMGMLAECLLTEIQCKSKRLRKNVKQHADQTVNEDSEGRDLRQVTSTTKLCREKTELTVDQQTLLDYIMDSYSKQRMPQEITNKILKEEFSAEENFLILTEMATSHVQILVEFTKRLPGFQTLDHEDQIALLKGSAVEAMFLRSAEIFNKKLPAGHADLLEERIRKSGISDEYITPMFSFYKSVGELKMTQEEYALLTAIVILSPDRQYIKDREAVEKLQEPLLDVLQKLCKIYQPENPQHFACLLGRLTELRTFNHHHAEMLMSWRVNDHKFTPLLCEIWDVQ
Briefly: electrophoretic mobility shift, in vitro translated FXR + RXR on EcRE probe. A general note: In EMSA bound probe runs differently from free probe, usually more slowly.

For assay [2], the target named is T2, GST-GRIP1, the three receptor interaction domains of mouse GRIP1 (Arg 625 - Lys 765) fused to … (mouse, UniProt Q61026 625-765).
T2 construct: Expressed in E. coli and purified on glutathione-sepharose; also called CoA; not shown: glutathione-S-transferase (GST)
T2 sequence (looked up): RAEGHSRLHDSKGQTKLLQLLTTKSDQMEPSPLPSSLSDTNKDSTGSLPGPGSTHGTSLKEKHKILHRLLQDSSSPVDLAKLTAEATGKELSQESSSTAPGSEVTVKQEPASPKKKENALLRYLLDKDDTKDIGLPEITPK
Briefly: electrophoretic mobility shift, DR1 probe, LG268 0-1000 nM.

In assay [3] the target is T1, rat FXR (farnesoid X-activated …). Description: DNA binding as a heterodimer (Figure 5 and data not shown).
The target in assay [4] is T2, GST-GRIP1, the three receptor …. Briefly: phosphorimager quantitation of the mobility shift autoradiogram against LG268 concentration (Figure 4).

B1: human RXRα (9-cis retinoic acid receptor), full-length, wild type (receptor, UniProt P19793 1-462, looked up)
chain: MDTKHFLPLDFSTQVNSSLTSPTGRGSMAAPSLHPSLGPGIGSPGQLHSPISTLSSPINGMGPPFSVISSPMGPHSMSVPTTPTLGFSTGSPQLSSPMNPVSSSEDIKPPLGLNGVLKVPAHPSGNMASFTKHICAICGDRSSGKHYGVYSCEGCKGFFKRTVRKDLTYTCRDNKDCLIDKRQRNRCQYCRYQKCLAMGMKREAVQEERQRGKDRNENEVESTSSANEDMPVERILEAELAVEPKTETYVEANMGLNPSSPNDPVTNICQAADKQLFTLVEWAKRIPHFSELPLDDQVILLRAGWNELLIASFSHRSIAVKDGILLATGLHVHRNSAHSAGVGAIFDRVLTELVSKMRDMQMDKTELGCLRAIVLFNPDSKGLSNPAEVEALREKVYASLEAYCKHKYPEQPGRFAKLLLRLPALRSIGLKCLEHLFFFKLIGDTPIDTFLMEMLEAPHQMT
notes: mature; also called wild-type RXR
Regarding B1, in assay [1], the binding result is reported as “binds”.

B2: RXRm, human RXRα with the point mutation Asp 322→Pro in the ligand binding domain (receptor, UniProt P19793 1-462, looked up)
chain: MDTKHFLPLDFSTQVNSSLTSPTGRGSMAAPSLHPSLGPGIGSPGQLHSPISTLSSPINGMGPPFSVISSPMGPHSMSVPTTPTLGFSTGSPQLSSPMNPVSSSEDIKPPLGLNGVLKVPAHPSGNMASFTKHICAICGDRSSGKHYGVYSCEGCKGFFKRTVRKDLTYTCRDNKDCLIDKRQRNRCQYCRYQKCLAMGMKREAVQEERQRGKDRNENEVESTSSANEDMPVERILEAELAVEPKTETYVEANMGLNPSSPNDPVTNICQAADKQLFTLVEWAKRIPHFSELPLDDQVILLRAGWNELLIASFSHRSIAVKPGILLATGLHVHRNSAHSAGVGAIFDRVLTELVSKMRDMQMDKTELGCLRAIVLFNPDSKGLSNPAEVEALREKVYASLEAYCKHKYPEQPGRFAKLLLRLPALRSIGLKCLEHLFFFKLIGDTPIDTFLMEMLEAPHQMT
notes: mature; Claim 9 prints Asp332→Pro; also called mutant RXR; RXR mutant
On to B2, for which the “fold decrease in potency of coactivator recruitment compared to wild type RXR” value in assay [2] worked out at 100 fold. The binding result in assay [3] is given as “binds”. In addition, the “fold higher ligand concentration required for recruitment of coactivator (against wild-type RXR)” value in assay [4] was ~100 fold.

For the origin of these results see EP1165135B1 (City of Hope, dated 2004).
